Assay results reported in US11214774B2, “PINK1 C-terminal domain polypeptide and methods using the same in cancer treatment” (National Taiwan University, priority 2015, dated 2022).
Each block holds one molecule with its values, some of them ahead of it.

What was measured:
EGFR (HER1) [1] = target: T1, EGFR (HER1) (Homo sapiens, UniProt P00533, L858R/T790M); test: EGFR (HER1) phosphorylation in lung cancer cells co-cultured with CTD polypeptide; assay type: cell-based; details: H1975 cells; 2 μM; vs R9 control (FIG. 5A)
T1 construct: endogenous in cells; host or cells: CL1-5, HOP62, PC9, H1975 lung cancer cells
Description: (§1) R9: a peptide consisting of 9 arginine residues.
(§2) To determine the interaction between PINK1-CTD and HER1 or HER2, PINK1-CTD polypeptide was co-cultured with CL1-5, HOP62, PC9 or H1975 cells. In this example, the used PINK1-CTD was synthesized from Genmedkia Biotechnology Corp., and it was conjugated with 9 arginine residues for membrane attaching and internalization. The group in which the cells were co-cultured with a peptide only having 9 arginine residues (R9) was used as control group.

EGFR (HER1) [2] = test: as above; assay type: cell-based; details: PC9 cells; 2 μM; vs R9 control (FIG. 5A)
Description: as §1, §2

EGFR (HER1) [3] = target: T2, EGFR (HER1) (Homo sapiens, UniProt P00533); test: as above; assay type: cell-based; details: 2 μM, vs R9 control (FIG. 5A)
T2 construct: endogenous in cells; host or cells: CL1-5, HOP62, PC9, H1975 lung cancer cells
Description: as §1, §2

Hop62 = test: In vitro MTT assay, Hop62; assay type: cell-based; details: 2 μM (FIG. 11C)
HER2 = target: T3, HER2 (Homo sapiens, UniProt P04626); test: HER2 phosphorylation in CL1-5 cells co-cultured with CTD polypeptide; assay type: cell-based; details: CL1-5 cell (FIG. 5B)
T3 construct: endogenous in cells; host or cells: CL1-5 cells
Description: as §1, §2

CL1-5 [4] = test: CL1-5 lung cancer mouse xenograft model, CTD treatment; assay type: in vivo; details: CL1-5 xenograft; 2 μM injected every day or every two days; vs R9 (FIG. 11A)
Description: as §1
(§3) It was next investigated the in vivo tumor growth of PINK1-CTD stably expressing CL1-5, PC9, H1975 and H3255 cells. It has been shown that PINK1-CTD inhibits EGFR activation. It not only downregulates EGFR downstream signaling in EGFR-addicted PC9, H1975 and H3255 cells but also attenuates STATS-Y705 phosphorylation in EGFR non-addicted CL1-5 cells (FIGS. 9A and 9B). […] In addition, the synthetic polypeptide PINK1-CTD (Genmedkia Biotechnology Corp.) was used in mouse xenograft model. 2 μM of CTD polypeptide or R9 peptide (as control group) was injected into the mouse every day or every two days (as shown by arrow in FIGS. 11A and 11B).

H1975 [5] = test: In vitro MTT assay, H1975; assay type: cell-based; details: 2 μM (FIG. 11C)
PC9 = test: In vitro MTT assay, PC9; assay type: cell-based; details: 2 μM (FIG. 11C)
H1975 [6] = test: H1975 lung cancer mouse xenograft model, CTD treatment; assay type: in vivo; details: 2 μM injected every day or every two days, vs R9 (FIG. 11B)
Description: as §1, §3

CL1-5 [7] = test: In vitro MTT assay, CL1-5; assay type: cell-based; details: 2 μM (FIG. 11C)
EGFR pathway = test: Immunoblotting of EGFR pathway under PINK1-CTD overexpression; assay type: cell-based
Description: FIGS. 9A and 9B show hindrance of PINK1-CTD to EGFR dimerization and activation.
as §3

[8] = test system: CL1-5, PC9, H1975 and H3255 cells; test: Tumor xenografts of PINK1-CTD stably expressing lung cancer cells; assay type: in vivo; details: CL1-5, PC9, H1975 and H3255 xenografts (FIGS. 6B, 6E, 6H, 6K)
Description: FIGS. 6A-6L show tumor xenografts of shPINK1, PINK1 and PINK1-CTD stably expressing lung cancer cells. FIGs. A, D, G and J: PINK1 overexpression aggravated tumor growth in CL1-5 cells but suppressed tumor growth in PC9, H1975 and H3255 cells; FIGs. B, E, H and K: PINK1-CTD overexpression inhibited tumor growth in all cells tested; FIGs. C, F, I and L: PINK1 knockdown inhibited tumor growth in CL1-5 cells but promoted tumor growth in PC9, H1975 and H3255 cells. N=7 in each group.
as §3

EGFR = EGFR dimerization assay under PINK1-CTD overexpression; assay type: cell-based; details: CL1-5, PC9, H1975 and H3255 cells (FIG. 9A)
[9] = test system: EGFR-TKD (amino acids 645-954); test: In vitro GST pull-down assay; assay type: binding; details: recombinant GST-fused PINK1-CTD incubated with purified His-tagged EGFR-TKD; anti-His immunoblot (FIG. 3E)
Description: To dissect the interaction between PINK1 and EGFR, it was next investigated whether these two protein kinases interact directly and through which domains they interplay. It was established a flag-fused full-length EGFR construct, EGFR-flag, (amino acids 1-1210) and 8 serial truncated EGFR-flag constructs based on different EGFR functional domains (amino acids 1-378, 1-621, 1-644, 1-690, 1-954, 645-1210, 645-954, 955-1210) (FIG. 3A). Each of these 9 constructs was co-overexpressed with full-length PINK1 in HEK293 cells. The cell lysates were immunoprecipitated by anti-flag antibody and the immunoprecipitates were immunoblotted by PINK1 antibody. […] It was simultaneously established a myc-fused full-length PINK1 construct and another 7 truncated PINK1-myc constructs containing amino acids 1-509, 1-155, 156-509, 156-309, 310-428, 429-581 and 78-581, respectively (FIG. 3C). Each of these 8 constructs was co-transfected with full-length EGFR-flag in HEK293 cells. The cell lysates were immunoprecipitated by anti-myc antibody and immunoblotted with anti-flag antibody. […] Recombinant GST-fused PINK1-CTD (amino acids 510-581) and negative-control construct GST-fused PINK1310-428 (amino acids 310-428) were individually incubated with purified His-tagged EGFR-TKD (amino acids 645-954) and analyzed by immunoblotting with anti-His antibody (FIG. 3E). […]

EGFR (HER1) phosphorylation (EGFR (HER1) [1]): effectively inhibited
EGFR (HER1) phosphorylation (EGFR (HER1) [3]; CL1-5 cells): effectively inhibited
EGFR (HER1) phosphorylation (EGFR (HER1) [3]; HOP62 cells): effectively inhibited
B1: CTD polypeptide: Synthesized PINK1-CTD (Genmedkia Biotechnology Corp.), conjugated with 9 arginine residues for membrane attaching and internalization (peptide)
peptide: SLWGEHILALKNLKLDKMVGWLLQQSAATLLANRLTEKCCVETKMKMLFLANLECETLCQAALLLCSWRAALRRRRRRRRR
EGFR (HER1) phosphorylation (EGFR (HER1) [2]): effectively inhibited
cell viability (MTT) (Hop62): reduced
HER2 phosphorylation (HER2): inhibited HER2 phosphorylation in CL1-5 cell in a dose-dependent manner
in vivo tumor growth (CL1-5 [4]): inhibited in vivo tumor growth
cell viability (MTT) (H1975 [5]): reduced
cell viability (MTT) (PC9): reduced
in vivo tumor growth (H1975 [6]): inhibited in vivo tumor growth
cell viability (MTT) (CL1-5 [7]): reduced

B2: PINK1-CTD: PINK1 C-terminal domain, amino acids 510 to 581 of PINK1 (SEQ ID NO: 1); overexpressed / stably expressed in cells (protein, listed as Homo sapiens)
chain: SLWGEHILALKNLKLDKMVGWLLQQSAATLLANRLTEKCCVETKMKMLFLANLECETLCQAALLLCSWRAAL
EGFR downstream signaling (EGFR pathway; EGFR-addicted PC9, H1975 and H3255 cells (FIG. 9B)): concurrently downregulated
phosphorylated EGFR-Y1068 to total EGFR ratio (EGFR pathway; all cells analyzed (FIG. 9B)): a decrease in phosphorylated EGFR-Y1068 to total EGFR ratio
STAT3-Y705 phosphorylation (EGFR pathway; wild-type EGFR CL1-5 cells (FIG. 9B)): only a decrease in STAT3-Y705 phosphorylation
in vivo tumor growth of PINK1-CTD stably expressing cells [8]: exerted inhibitory effects in all the cells tested
EGFR dimer to monomer ratio (EGFR): a decrease in EGFR dimer to monomer ratio

direct binding to EGFR-TKD [9]: directly bound to EGFR-TKD
B3: GST-fused PINK1-CTD: Recombinant GST-fused PINK1 C-terminal domain, amino acids 510-581 of PINK1 (protein)
chain: B2 chain
modifications: left off: a dimerising Fc or GST
notes: Recombinant GST-fused PINK1 C-terminal domain, amino acids 510-581 of PINK1
